From IntAct's records for PubMed 17981117

Biological target: ima4_human KPNA3 (UniProt O00505)
Sequence (O00505 whole entry): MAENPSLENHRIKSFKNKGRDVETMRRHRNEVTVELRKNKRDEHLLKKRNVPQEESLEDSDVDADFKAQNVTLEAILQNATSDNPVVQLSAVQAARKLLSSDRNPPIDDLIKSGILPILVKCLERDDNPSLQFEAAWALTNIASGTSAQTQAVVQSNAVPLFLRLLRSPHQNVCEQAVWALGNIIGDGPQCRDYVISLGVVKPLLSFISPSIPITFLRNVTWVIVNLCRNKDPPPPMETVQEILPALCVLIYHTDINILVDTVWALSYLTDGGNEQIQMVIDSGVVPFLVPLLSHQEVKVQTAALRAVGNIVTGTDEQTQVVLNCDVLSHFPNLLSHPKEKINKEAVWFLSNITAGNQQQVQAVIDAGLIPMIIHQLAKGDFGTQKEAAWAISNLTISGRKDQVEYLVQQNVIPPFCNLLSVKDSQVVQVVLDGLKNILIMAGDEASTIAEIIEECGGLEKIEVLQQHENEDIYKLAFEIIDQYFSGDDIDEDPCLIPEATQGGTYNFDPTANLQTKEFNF

Circumsporozoite protein (Plasmodium yoelii yoelii), P06914 R315T;R317T;R319T
effect of a mutation on the interaction: decreasing interaction
